Data on four molecules can be found in article PMC2993962, “Identification of a Novel Binding Partner of Phospholipase Cβ1: Translin-Associated Factor X” (PLoS ONE, 2010).

B1: His-tagged translin-associated factor X (TRAX) (natural protein, human, UniProt Q99598 1-290, looked up)
chain: MSNKEGSGGFRKRKHDNFPHNQRREGKDVNSSSPVMLAFKSFQQELDARHDKYERLVKLSRDITVESKRTIFLLHRITSAPDMEDILTESEIKLDGVRQKIFQVAQELSGEDMHQFHRAITTGLQEYVEAVSFQHFIKTRSLISMDEINKQLIFTTEDNGKENKTPSSDAQDKQFGTWRLRVTPVDYLLGVADLTGELMRMCINSVGNGDIDTPFEVSQFLRQVYDGFSFIGNTGPYEVSKKLYTLKQSLAKVENACYALKVRGSEIPKHMLADVFSVKTEMIDQEEGIS
notes: translin-associated factor X (TRAX), human cDNA from Open Biosystems cloned into pET32a; pET32a may also add thioredoxin and an S tag, depending on the cloning sites (surmise); source: Rosetta cells (pET32a), purified on a Ni-NTA column
B2: Gαq (natural protein, rat, UniProt P82471 1-359, looked up)
chain: MTLESIMACCLSEEAKEARRINDEIERQLRRDKRDARRELKLLLLGTGESGKSTFIKQMRIIHGSGYSDEDKRGFTKLVYQNIFTAMQAMVRAMDTLKIPYKYEHNKAHAQLVREVDVEKVSAFENPYVDAIKSLWNDPGIQECYDRRREYQLSDSTKYYLNDLDRVADPSYLPTQQDVLRVRVPTTGIIEYPFDLQSVIFRMVDVGGQRSERRKWIHCFENVTSIMFLVALSEYDQVLVESDNENRMEESKALFRTIITYPWFQNSSVILFLNKKDLLEEKIMYSHLVDYFPEYDGPQRDAQAAREFILKMFVDLNPDSDKIIYSHFTCATDTENIRFVFAAVKDTILQLNLKEYNLV
modifications: thiol-reactive probe CPM, ~1:1 probe:protein (in the binding titrations)
notes: G protein alpha subunit q (Gαq), rat; the nucleotide state is told by the assay; The sentence of the methods leaves open whether Gαq carried a His tag; also called CPM-Gαq(GTPγS); Gαq-GTPγS; source: Sf9 cells, purified
B3: His6-PLCβ1 (phospholipase Cβ1), full length enzyme (enzyme, rat, UniProt P10687 1-1216, looked up)
chain: MAGAQPGVHALQLKPVCVSDSLKKGTKFVKWDDDSTIVTPIILRTDPQGFFFYWTDQNKETELLDLSLVKDARCGKHAKAPKDPKLRELLDVGNIGHLEQRMITVVYGPDLVNISHLNLVAFQEEVAKEWTNEVFSLATNLLAQNMSRDAFLEKAYTKLKLQVTPEGRIPLKNIYRLFSADRKRVETALEACSLPSSRNDSIPQEDFTPDVYRVFLNNLCPRPEIDNIFSEFGAKSKPYLTVDQMMDFINLKQRDPRLNEILYPPLKQEQVQVLIEKYEPNSSLAKKGQMSVDGFMRYLSGEENGVVSPEKLDLNEDMSQPLSHYFINSSHNTYLTAGQLAGNSSVEMYRQVLLSGCRCVELDCWKGRTAEEEPVITHGFTMTTEISFKEVIEAIAECAFKTSPFPILLSFENHVDSPKQQAKMAEYCRLIFGDALLMEPLEKYPLESGVPLPSPMDLMYKILVKNKKKSHKSSEGSGKKKLSEQASNTYSDSSSVFEPSSPGAGEADTESDDDDDDDDCKKSSMDEGTAGSEAMATEEMSNLVNYIQPVKFESFETSKKRNKSFEMSSFVETKGLEQLTKSPVEFVEYNKMQLSRIYPKGTRVDSSNYMPQLFWNAGCQMVALNFQTVDLAMQINMGMYEYNGKSGYRLKPEFMRRPDKHFDPFTEGIVDGIVANTLSVKIISGQFLSDKKVGTYVEVDMFGLPVDTRRKAFKTKTSQGNAVNPVWEEEPIVFKKVVLPSLACLRIAAYEEGGKFIGHRILPVQAIRPGYHYICLRNERNQPLMLPAVFVYIEVKDYVPDTYADVIEALSNPIRYVNLMEQRAKQLAALTLEDEEEVKKEADPGETSSEAPSETRTTPAENGVNHTATLAPKPPSQAPHSQPAPGSVKAPAKTEDLIQSVLTEVEAQTIEELKQQKSFVKLQKKHYKEMKDLVKRHHKKTTELIKEHTTKYNEIQNDYLRRRAALEKSAKKDSKKKSEPSSPDHGSSAIEQDLAALDAEMTQKLIDLKDKQQQQLLNLRQEQYYSEKYQKREHIKLLIQKLTDVAEECQNNQLKKLKEICEKEKKELKKKMDKKRQEKITEAKSKDKSQMEEEKTEMIRSYIQEVVQYIKRLEEAQSKRQEKLVEKHKEIRQQILDEKPKLQMELEQEYQDKFKRLPLEILEFVQEAMKGKVSEDSNHGSAPPSLASDPAKVNLKSPSSEEVQGENAGREFDTPL
modifications: thiol-reactive probe CPM, ~1:1 probe:protein, in the titrations with TRAX (CPM-PLCβ1); unlabelled when added to CPM-Gαq
notes: phospholipase Cβ1, rat, full length enzyme; also called CPM-PLCβ1; His-tagged PLCβ1; source: Sf9 cells, purified

The target of test [1] is Gαq (UniProt P21279). The following applies: cited from earlier work.
Test [2] addresses B3. Briefly: other fluorescence titration; 2 nM CPM-labelled PLCβ1 (full length or ΔC) in solution, unlabelled TRAX added stepwise; increase of CPM intensity (excitation 380 nm, emission 420-560 nm) fitted to a bimolecular dissociation constant; apparent. The note with it: both partners purified.
The target in test [3] is B3. Briefly: other fluorescence titration; 2 nM CPM-Gαq activated with GTPγS on large unilamellar vesicles of POPC:POPS:POPE (1:1:1); PLCβ1 added; without and with excess TRAX (300 nM in the text, 200 nM in the legend). The note with it: both partners purified.
Test [4] deals with B2. Described as above. The following applies: both partners purified.

On to PLCβ1 (from UniProt Q9NQ66), for which, in the test with Gαq [1], the Kd is 0.67 nM.
Consider B1, for which the Kd in test [2] was found to be 8 nM.
B2: the binding result in test [3] was “binds”.
Regarding B3, in the test with Gαq [4], the “fold reduction of binding affinity in the presence of excess TRAX” value stood at 3 fold.
